Reference: the Immune Epitope Database (IEDB)

Assays:
HLA-B*15:01 [1] = assay: IEDB peptide-MHC binding, purified MHC/competitive/fluorescence; filed as Kd, often an IC50 or EC50 that approximates it; ≥ and ≤ were set here for values at or beyond the usual limits of such assays; settings: source organism: Zaire ebolavirus
HLA-B*27:03 = assay: as above; settings: source organism: Zaire ebolavirus
HLA-B*57:01 = assay: as above; settings: source organism: Zaire ebolavirus
HLA-B*51:01 [2] = assay: as above; settings: source organism: Zaire ebolavirus
HLA-B*15:17 = assay: as above; settings: source organism: Zaire ebolavirus
HLA-B*39:01 = assay: as above; settings: source organism: Zaire ebolavirus
HLA-B*46:01 = assay: as above; settings: source organism: Zaire ebolavirus
HLA-A*69:01 [3] = assay: as above; settings: source organism: Zaire ebolavirus
HLA-B*18:01 [4] = assay: as above; settings: source organism: Zaire ebolavirus
HLA-A*24:03 = assay: IEDB peptide-MHC binding, purified MHC/direct/fluorescence; filed as Kd, often an IC50 or EC50 that approximates it; ≥ and ≤ were set here for values at or beyond the usual limits of such assays
HLA-A*02:01 = assay: as above
HLA-A*03:01 = assay: as above
HLA-B*35:01 = assay: IEDB peptide-MHC binding, purified MHC/competitive/radioactivity; filed as Kd, often an IC50 or EC50 that approximates it; ≥ and ≤ were set here for values at or beyond the usual limits of such assays
HLA-B*07:02 [5] = assay: as above
HLA-B*51:01 [6] = assay: as above
HLA-B*53:01 = assay: as above
HLA-B*40:01 = assay: IEDB peptide-MHC binding, purified MHC/direct/fluorescence; filed as Kd, often an IC50 or EC50 that approximates it; ≥ and ≤ were set here for values at or beyond the usual limits of such assays
HLA-B*44:02 = assay: as above
HLA-B*18:01 [7] = assay: as above; settings: source organism: Orthohantavirus hantanense
HLA-A*02:12 = assay: as above; settings: source organism: Mycobacterium tuberculosis str. Haarlem
HLA-A*30:02 = assay: IEDB peptide-MHC binding, purified MHC/competitive/radioactivity; filed as Kd, often an IC50 or EC50 that approximates it; ≥ and ≤ were set here for values at or beyond the usual limits of such assays; settings: source organism: Dengue virus 4 Philippines/H241/1956
HLA-B*15:01 [8] = assay: IEDB peptide-MHC binding, purified MHC/direct/fluorescence; filed as Kd, often an IC50 or EC50 that approximates it; ≥ and ≤ were set here for values at or beyond the usual limits of such assays; settings: source organism: Coxiella burnetii
HLA-B*08:01 = assay: as above; settings: source organism: Coxiella burnetii
HLA-B*07:02 [9] = assay: as above; settings: source organism: Coxiella burnetii
HLA-B*58:01 = assay: as above; settings: source organism: Coxiella burnetii
HLA-A*11:01 = assay: as above; settings: source organism: Coxiella burnetii
HLA-A*26:01 = assay: as above; settings: source organism: Coxiella burnetii
HLA-A*01:01 = assay: as above; settings: source organism: Coxiella burnetii
HLA-B*27:05 = assay: as above; settings: source organism: Coxiella burnetii
HLA-A*69:01 [10] = assay: as above; settings: source organism: Coxiella burnetii
[11] = source organism: Zaire ebolavirus
[12] = source organism: Dengue virus 1 Brazil/97-11/1997
[13] = source organism: Dengue virus 3 Sri Lanka/1266/2000
[14] = source organism: Dengue virus 2 Jamaica/1409/1983
[15] = source organism: Dengue virus 4 Philippines/H241/1956
[16] = source organism: Orthohantavirus hantanense
[17] = source organism: Dengue virus 3 Martinique/1243/1999
[18] = source organism: Coxiella burnetii

Sequence: KLINTLFHA
- Kd (HLA-B*15:01 [1]): ≥ 20 µM
- Kd (HLA-B*27:03): ≥ 20 µM
- Kd (HLA-B*57:01): ≥ 20 µM
- Kd (HLA-B*51:01 [2]): ≥ 20 µM
- Kd (HLA-B*15:17): ≥ 20 µM
- Kd (HLA-B*39:01): ≥ 20 µM
- Kd (HLA-B*46:01): ≥ 20 µM
- Kd (HLA-A*69:01 [3]): ≥ 20 µM
- Kd (HLA-B*18:01 [4]): ≥ 20 µM
- Kd (HLA-A*24:03; [11]): ≥ 20000 nM
- Kd (HLA-A*02:01; source organism: Sudan ebolavirus - Maleo (1979)): 4.7 nM
- Kd (HLA-A*03:01; [11]): ≥ 20 µM

Sequence: LALMATFKM
- Kd (HLA-B*35:01; [12]): 110 nM

Sequence: LPAALAFHL
- Kd (HLA-B*07:02 [5]; [13]): 72.4 nM
- Kd (HLA-B*51:01 [6]; [13]): 828 nM
- Kd (HLA-B*53:01; [13]): 10.7 nM

Sequence: NPWMEDKTPV
- Kd (HLA-B*07:02 [5]; [14]): 55.7 nM

Sequence: QPQWIAASII
- Kd (HLA-B*07:02 [5]; [15]): 291 nM
- Kd (HLA-B*51:01 [6]; [15]): 719 nM

Sequence: RELGLDISL
- Kd (HLA-B*40:01; [16]): 1.2 nM
- Kd (HLA-B*44:02; [16]): 3.28 µM
- Kd (HLA-B*18:01 [7]): 2.7 nM

Sequence: RPASAWTLY
- Kd (HLA-B*35:01; [14]): 83.6 nM
- Kd (HLA-B*53:01; [14]): 87.5 nM

Sequence: RPGYHTQTA
- Kd (HLA-B*07:02 [5]; [14]): 9.61 nM

Sequence: RPTPKGTVMD
- Kd (HLA-B*07:02 [5]; source organism: Dengue virus 3 Singapore/8120/1995): 61 nM

Sequence: SPKRLSAAIG
- Kd (HLA-B*07:02 [5]; [12]): 125 nM

Sequence: TPFAEYTNSV
- Kd (HLA-B*07:02 [5]; [15]): 72.9 nM
- Kd (HLA-B*51:01 [6]; [15]): 813 nM

Sequence: TPRGTVMDII
- Kd (HLA-B*07:02 [5]; [14]): 6.2 nM
- Kd (HLA-B*51:01 [6]; [14]): 2420 nM

Sequence: VPMSTYGWNI
- Kd (HLA-B*07:02 [5]; [17]): 60.5 nM
- Kd (HLA-B*51:01 [6]; [17]): 91.7 nM
- Kd (HLA-B*53:01; [17]): 44.5 nM

Sequence: WHYDDENPY
- Kd (HLA-B*35:01; [17]): 2620 nM

Sequence: WLSQTTLSV
- Kd (HLA-A*02:12): 3 nM

Sequence: YAGPFSQHNY
- Kd (HLA-A*30:02): 14.9 nM
- Kd (HLA-B*35:01; [15]): 113 nM

Sequence: YAQMWQLMYF
- Kd (HLA-B*51:01 [6]; [12]): 19400 nM
- Kd (HLA-B*35:01; [12]): 964 nM
- Kd (HLA-B*53:01; [12]): 81 nM

Sequence: YYYNFSEDL
- Kd (HLA-B*15:01 [8]): ≥ 20 µM
- Kd (HLA-B*40:01; [18]): ≥ 20000 nM
- Kd (HLA-A*24:03; [18]): 1.05 nM
- Kd (HLA-B*08:01): ≥ 20 µM
- Kd (HLA-B*07:02 [9]): ≥ 20 µM
- Kd (HLA-B*58:01): ≥ 20 µM
- Kd (HLA-A*11:01): ≥ 20 µM
- Kd (HLA-A*26:01): ≥ 20 µM
- Kd (HLA-A*01:01): ≥ 20 µM
- Kd (HLA-A*02:01; [18]): ≥ 20000 nM
- Kd (HLA-B*44:02; [18]): ≥ 20 µM
- Kd (HLA-B*27:05): ≥ 20 µM
- Kd (HLA-A*03:01; [18]): ≥ 20 µM
- Kd (HLA-A*69:01 [10]): ≥ 20 µM
